Measured values taken from PMC9482650, “Quantitative fragmentomics allow affinity mapping of interactomes” (Nature Communications, 2022).

Tests used:
Experiment in all cases: holdup assay
Set-up in all cases: key: below the threshold = too weak to quantify, mostly under pKd 3.1 to 4
[1] = target: AHNAK1, Q09666
[2] = target: DLG1_3, Q12959
[3] = target: T1, FRMPD1, Q5SYB0
T1 sequence (Q5SYB0 52-145, limits assumed, looked up): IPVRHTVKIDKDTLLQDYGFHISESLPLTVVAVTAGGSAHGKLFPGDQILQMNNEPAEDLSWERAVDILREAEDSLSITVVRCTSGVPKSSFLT

[4] = target: FRMPD2_1, Q68DX3
Sequence of FRMPD2_1, Q68DX3 (Q68DX3 770-861): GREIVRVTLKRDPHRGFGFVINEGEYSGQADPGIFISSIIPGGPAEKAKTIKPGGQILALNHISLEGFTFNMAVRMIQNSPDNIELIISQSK

[5] = target: GRID2IP_1, A4D2P6
Sequence of GRID2IP_1, A4D2P6 (A4D2P6 1-87): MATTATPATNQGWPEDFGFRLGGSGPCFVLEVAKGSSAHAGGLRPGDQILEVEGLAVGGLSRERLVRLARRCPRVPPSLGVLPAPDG

[6] = target: T2, GRIP1_2, Q9Y3R0
T2 sequence (Q9Y3R0 145-248, limits assumed, looked up): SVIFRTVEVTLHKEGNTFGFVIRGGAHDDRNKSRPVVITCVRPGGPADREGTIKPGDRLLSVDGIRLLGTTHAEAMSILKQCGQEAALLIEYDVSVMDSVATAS

[7] = target: GRIP2_7, Q9C0E4
Sequence of GRIP2_7, Q9C0E4 (Q9C0E4 934-1023): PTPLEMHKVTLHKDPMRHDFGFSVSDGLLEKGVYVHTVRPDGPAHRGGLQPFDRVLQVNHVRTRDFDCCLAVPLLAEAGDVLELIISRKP

[8] = target: T3, HTRA4, P83105
T3 sequence (P83105 378-476, limits assumed, looked up): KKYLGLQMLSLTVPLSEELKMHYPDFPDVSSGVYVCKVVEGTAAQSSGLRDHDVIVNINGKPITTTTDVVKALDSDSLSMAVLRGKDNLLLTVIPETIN

[9] = target: IL16_1, Q14005
Sequence of IL16_1, Q14005 (Q14005 210-306): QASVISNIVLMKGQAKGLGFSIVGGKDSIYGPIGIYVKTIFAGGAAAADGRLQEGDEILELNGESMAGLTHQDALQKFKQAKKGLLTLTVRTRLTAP

[10] = target: IL16_4, Q14005
Sequence of IL16_4, Q14005 (Q14005 1229-1329): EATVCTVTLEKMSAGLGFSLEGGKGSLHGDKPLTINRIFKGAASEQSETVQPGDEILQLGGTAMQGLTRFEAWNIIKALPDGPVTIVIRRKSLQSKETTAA

[11] = target: Inadl_1, Q8NI35
Sequence of Inadl_1, Q8NI35 (Q8NI35 113-229): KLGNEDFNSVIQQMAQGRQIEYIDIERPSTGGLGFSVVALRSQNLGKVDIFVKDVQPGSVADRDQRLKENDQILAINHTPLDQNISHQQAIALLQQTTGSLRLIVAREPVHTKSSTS

[12] = target: Inadl_2, Q8NI35
Sequence of Inadl_2, Q8NI35 (Q8NI35 238-335): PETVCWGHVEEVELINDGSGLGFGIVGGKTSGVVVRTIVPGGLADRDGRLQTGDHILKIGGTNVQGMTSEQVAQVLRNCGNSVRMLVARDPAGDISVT

[13] = target: Inadl_3, Q8NI35
Sequence of Inadl_3, Q8NI35 (Q8NI35 359-469): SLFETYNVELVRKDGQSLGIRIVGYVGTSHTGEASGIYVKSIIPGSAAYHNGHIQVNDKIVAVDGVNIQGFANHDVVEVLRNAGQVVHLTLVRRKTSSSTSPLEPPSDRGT

[14] = target: MAGI1_1, Q96QZ7
Sequence of MAGI1_1, Q96QZ7 (Q96QZ7 1-106): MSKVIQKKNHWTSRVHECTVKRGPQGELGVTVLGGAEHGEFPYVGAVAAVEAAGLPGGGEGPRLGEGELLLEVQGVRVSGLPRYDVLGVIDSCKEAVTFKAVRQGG

[15] = target: MAGI2_3, Q86UL8
Sequence of MAGI2_3, Q86UL8 (Q86UL8 600-682): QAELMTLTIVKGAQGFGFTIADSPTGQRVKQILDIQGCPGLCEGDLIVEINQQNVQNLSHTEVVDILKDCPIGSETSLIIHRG

[16] = target: MAGI2_4, Q86UL8
Sequence of MAGI2_4, Q86UL8 (Q86UL8 772-865): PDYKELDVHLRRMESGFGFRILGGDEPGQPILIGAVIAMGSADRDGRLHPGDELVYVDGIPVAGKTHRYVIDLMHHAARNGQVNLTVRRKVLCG

[17] = target: MAGI2_5, Q86UL8
Sequence of MAGI2_5, Q86UL8 (Q86UL8 915-1017): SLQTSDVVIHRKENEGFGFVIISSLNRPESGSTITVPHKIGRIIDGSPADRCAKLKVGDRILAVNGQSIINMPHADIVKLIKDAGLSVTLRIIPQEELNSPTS

[18] = target: T4, MPDZ_12, O75970
T4 sequence (O75970 1857-1958, limits assumed, looked up): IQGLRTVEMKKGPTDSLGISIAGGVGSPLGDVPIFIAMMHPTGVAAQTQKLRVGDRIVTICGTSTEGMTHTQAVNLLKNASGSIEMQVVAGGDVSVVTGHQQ

[19] = target: T5, MPDZ_5, O75970
T5 sequence (O75970 695-796, limits assumed, looked up): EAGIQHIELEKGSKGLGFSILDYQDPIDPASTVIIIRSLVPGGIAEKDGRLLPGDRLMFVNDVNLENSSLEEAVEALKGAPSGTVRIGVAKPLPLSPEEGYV

[20] = target: T6, MPP7, Q5T2T1
T6 sequence (Q5T2T1 134-230, limits assumed, looked up): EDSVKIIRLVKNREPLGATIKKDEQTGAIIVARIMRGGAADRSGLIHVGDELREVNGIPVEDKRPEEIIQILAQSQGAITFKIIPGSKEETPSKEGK

[21] = target: NHERF2_2, Q15599
Sequence of NHERF2_2, Q15599 (Q15599 142-238): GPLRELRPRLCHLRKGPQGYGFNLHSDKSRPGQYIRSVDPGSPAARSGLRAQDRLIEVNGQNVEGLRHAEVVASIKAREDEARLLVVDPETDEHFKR

[22] = target: T7, NHERF3_3, Q5T2W1
T7 sequence (Q5T2W1 238-333, limits assumed, looked up): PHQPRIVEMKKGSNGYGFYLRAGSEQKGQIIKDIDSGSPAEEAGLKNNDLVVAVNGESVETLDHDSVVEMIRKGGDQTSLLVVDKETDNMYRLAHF

[23] = target: NHERF4_2, Q86UT5
Sequence of NHERF4_2, Q86UT5 (Q86UT5 220-308): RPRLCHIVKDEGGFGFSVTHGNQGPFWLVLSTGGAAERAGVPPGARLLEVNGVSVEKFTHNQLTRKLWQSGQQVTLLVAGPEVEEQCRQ

[24] = target: PDZRN4_1, Q6ZMN7
Sequence of PDZRN4_1, Q6ZMN7 (Q6ZMN7 213-318): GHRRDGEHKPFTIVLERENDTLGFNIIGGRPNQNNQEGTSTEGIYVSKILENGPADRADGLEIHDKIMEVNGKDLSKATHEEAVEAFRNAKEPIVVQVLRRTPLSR

[25] = target: T8, SNTB1, Q13884
T8 sequence (Q13884 107-205, limits assumed, looked up): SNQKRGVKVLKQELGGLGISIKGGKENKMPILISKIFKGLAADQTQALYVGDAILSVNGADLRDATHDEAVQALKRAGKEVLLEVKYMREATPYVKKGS

[26] = target: T9, TIAM2, Q8IVF5
T9 sequence (Q8IVF5 885-986, limits assumed, looked up): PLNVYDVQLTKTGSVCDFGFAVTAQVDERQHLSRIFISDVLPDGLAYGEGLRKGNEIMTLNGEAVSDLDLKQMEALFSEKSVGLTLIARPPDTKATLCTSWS

[27] = target: TJP2_1, Q9UDY2
Sequence of TJP2_1, Q9UDY2 (Q9UDY2 24-128): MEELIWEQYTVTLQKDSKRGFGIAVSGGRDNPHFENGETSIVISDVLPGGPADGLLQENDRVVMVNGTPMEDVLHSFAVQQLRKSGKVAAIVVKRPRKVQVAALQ

[28] = target: T10, TJP3_3, O95049
T10 sequence (O95049 375-456, limits assumed, looked up): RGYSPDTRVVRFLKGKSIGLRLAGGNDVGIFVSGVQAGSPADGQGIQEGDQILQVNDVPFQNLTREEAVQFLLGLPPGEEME

[29] = plain residues with an end cap or a label only (N-terminal biotin on a linker: ttds)
[30] = plain residues with an end cap or a label only (N-terminal biotin on a linker: ahx)

Sequence of AHNAK1, Q09666 (Q09666 4-100): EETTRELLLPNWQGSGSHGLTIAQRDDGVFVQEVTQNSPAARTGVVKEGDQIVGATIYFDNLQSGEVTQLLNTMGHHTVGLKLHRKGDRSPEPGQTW
Sequence of DLG1_3, Q12959 (Q12959 457-571): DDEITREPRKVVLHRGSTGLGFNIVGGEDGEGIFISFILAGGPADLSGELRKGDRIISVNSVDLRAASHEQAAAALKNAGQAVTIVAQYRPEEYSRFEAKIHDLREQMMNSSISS

## PSRDRKETSI [RALBP1, Q15311]
[1]; [29]
  pKd: below the threshold
[2]; [29]
  pKd: 4.28
[3]; [29]
  pKd: below the threshold
[4]; [29]
  pKd: below the threshold
[5]; [29]
  pKd: below the threshold
[6]; [29]
  pKd: 3.45
[7]; [29]
  pKd: below the threshold
[8]; [29]
  pKd: below the threshold
[9]; [29]
  pKd: below the threshold
[10]; [29]
  pKd: below the threshold
[11]; [29]
  pKd: below the threshold
[12]; [29]
  pKd: below the threshold
[13]; [29]
  pKd: below the threshold
[14]; [29]
  pKd: below the threshold
[15]; [29]
  pKd: below the threshold
[16]; [29]
  pKd: below the threshold
[17]; [29]
  pKd: below the threshold
[18]; [29]
  pKd: below the threshold
[19]; [29]
  pKd: below the threshold
[20]; [29]
  pKd: below the threshold
[21]; [29]
  pKd: below the threshold
[22]; [29]
  pKd: below the threshold
[23]; [29]
  pKd: below the threshold
[24]; [29]
  pKd: 4.57
[25]; [29]
  pKd: 3.97
[26]; [29]
  pKd: below the threshold
[27]; [29]
  pKd: below the threshold
[28]; [29]
  pKd: below the threshold

## VNENQKEYFF [CNTNAP4, Q9C0A0]
[1]; [30]
  pKd: below the threshold
[2]; [30]
  pKd: below the threshold
[3]; [30]
  pKd: below the threshold
[4]; [30]
  pKd: below the threshold
[5]; [30]
  pKd: below the threshold
[6]; [30]
  pKd: below the threshold
[7]; [30]
  pKd: 5.77
[8]; [30]
  pKd: below the threshold
[9]; [30]
  pKd: below the threshold
[10]; [30]
  pKd: below the threshold
[11]; [30]
  pKd: 3.72
[12]; [30]
  pKd: 5.4
[13]; [30]
  pKd: 3.95
[14]; [30]
  pKd: below the threshold
[15]; [30]
  pKd: below the threshold
[16]; [30]
  pKd: 3.55
[17]; [30]
  pKd: 3.54
[18]; [30]
  pKd: below the threshold
[19]; [30]
  pKd: 4.22
[20]; [30]
  pKd: 5.02
[21]; [30]
  pKd: below the threshold
[22]; [30]
  pKd: below the threshold
[23]; [30]
  pKd: below the threshold
[24]; [30]
  pKd: below the threshold
[25]; [30]
  pKd: below the threshold
[26]; [30]
  pKd: 4.62
[27]; [30]
  pKd: below the threshold
[28]; [30]
  pKd: below the threshold
